Assay results reported in the supplement of paper PMC7125110.
± gives the standard error. Variants at the floor of the assay were thinned out.

B1: glmS ribozyme (parent)
chain: AUAAAAGCGCCAGAACUACAGAAAUGUAGUUGACGAGGAGGAGGUUUAUCGAAUUUUCGGCGGAUGCCUCCAAA

Variants of: B1
Assay: self-cleavage kobs at 640 uM GlcN6P; higher = faster cleavage; RNA array
Details: with glucosamine-6-phosphate
Procedure, shortened: (§1)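 Barcoded ribozyme variants were transcribed in situ on sequenced MiSeq chips by E. coli RNA polymerase. At 37 °C, a hybridised Cy3 probe tracked them while glucosamine-6-phosphate (40 μM to 10 mM) in HEPES/KCl/Mg(OAc)2 buffer flowed in and tiles were imaged over ~14 h. Per-tile medians of signals normalised to baseline and to non-cleaving reference variants were fit to one- or two-exponential decays, giving kobs. kcat and KM came from weighted Michaelis–Menten fits across concentrations.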
For G9A A14G G38U, the “self-cleavage kobs at 640 uM GlcN6P” value was less than 1e-05 s⁻¹.
For A6U U31G C67G, the “self-cleavage kobs at 640 uM GlcN6P” value was less than 1e-05 s⁻¹.
For C8U A14C A15C, the “self-cleavage kobs at 640 uM GlcN6P” value was less than 1e-05 s⁻¹.
For C8U G40C C71U, the “self-cleavage kobs at 640 uM GlcN6P” value was less than 1e-05 s⁻¹.
For G9C A15C A64C C68G, the “self-cleavage kobs at 640 uM GlcN6P” value was less than 1e-05 s⁻¹.
For C8U A39U G59C, the “self-cleavage kobs at 640 uM GlcN6P” value was less than 1e-05 s⁻¹.
In the case of G9A G63U C70U, the “self-cleavage kobs at 640 uM GlcN6P” value is reported as less than 1e-05 s⁻¹.
With G7A G38C C58A the “self-cleavage kobs at 640 uM GlcN6P” value was less than 1e-05 s⁻¹.
In the case of G7U U31G C70A, the “self-cleavage kobs at 640 uM GlcN6P” value is reported as 0.000541 ± 0.00017 s⁻¹.
C8G G41U A48U C70U was tested, and the “self-cleavage kobs at 640 uM GlcN6P” value was less than 1e-05 s⁻¹.
With G9U A14C A64U C68A the “self-cleavage kobs at 640 uM GlcN6P” value was less than 1e-05 s⁻¹.
For G9A U45C A53U G60C, the “self-cleavage kobs at 640 uM GlcN6P” value was less than 1e-05 s⁻¹.
With C10G A53U U57A the “self-cleavage kobs at 640 uM GlcN6P” value was less than 1e-05 s⁻¹.
C8U G9U C68A was tested, and the “self-cleavage kobs at 640 uM GlcN6P” value was less than 1e-05 s⁻¹.
For C8U U31G G35U G44A C70U, the “self-cleavage kobs at 640 uM GlcN6P” value was less than 1e-05 s⁻¹.
For C10A G63A U69A C71U, the “self-cleavage kobs at 640 uM GlcN6P” value was 0.000215 ± 6.3e-05 s⁻¹.
In the case of C8G C11U A15U U57G, the “self-cleavage kobs at 640 uM GlcN6P” value is reported as less than 1e-05 s⁻¹.
For C8A G29C A36C G63A, the “self-cleavage kobs at 640 uM GlcN6P” value was less than 1e-05 s⁻¹.
In the case of C8A A12C G13A, the “self-cleavage kobs at 640 uM GlcN6P” value is reported as less than 1e-05 s⁻¹.
In the case of G7A G38C G59C, the “self-cleavage kobs at 640 uM GlcN6P” value is reported as less than 1e-05 s⁻¹.
For G7U G9C G29C A39G U46A A52U U55C C67G C70U, the “self-cleavage kobs at 640 uM GlcN6P” value was less than 1e-05 s⁻¹.
G7U G35U G38C was tested, and the “self-cleavage kobs at 640 uM GlcN6P” value was less than 1e-05 s⁻¹.
For C10A A53G C70G, the “self-cleavage kobs at 640 uM GlcN6P” value was 0.000157 ± 4.8e-05 s⁻¹.
In the case of G7A C11U A52U C58A G62U, the “self-cleavage kobs at 640 uM GlcN6P” value is reported as less than 1e-05 s⁻¹.
G7A A15U G51C A64G was tested, and the “self-cleavage kobs at 640 uM GlcN6P” value was less than 1e-05 s⁻¹.
For G9C G43U U55G A64G, the “self-cleavage kobs at 640 uM GlcN6P” value was less than 1e-05 s⁻¹.
G7C U69A C70U was tested, and the “self-cleavage kobs at 640 uM GlcN6P” value was less than 1e-05 s⁻¹.
In the case of C8A U57G, the “self-cleavage kobs at 640 uM GlcN6P” value is reported as less than 1e-05 s⁻¹.
With C8G G9U C10G the “self-cleavage kobs at 640 uM GlcN6P” value was less than 1e-05 s⁻¹.
With C10A G51C A52U C70U the “self-cleavage kobs at 640 uM GlcN6P” value was less than 1e-05 s⁻¹.
For C8U G37U C71G, the “self-cleavage kobs at 640 uM GlcN6P” value was 0.000584 ± 0.00027 s⁻¹.
C10U G35C G60A was tested, and the “self-cleavage kobs at 640 uM GlcN6P” value was less than 1e-05 s⁻¹.
G9U G13C G43A was tested, and the “self-cleavage kobs at 640 uM GlcN6P” value was less than 1e-05 s⁻¹.
G9C G29A G41A was tested, and the “self-cleavage kobs at 640 uM GlcN6P” value was less than 1e-05 s⁻¹.
G9C U30A U49C U56G was tested, and the “self-cleavage kobs at 640 uM GlcN6P” value was less than 1e-05 s⁻¹.
In the case of C10U A12C G60U, the “self-cleavage kobs at 640 uM GlcN6P” value is reported as less than 1e-05 s⁻¹.
A6U U31A G35U A42U G62U was tested, and the “self-cleavage kobs at 640 uM GlcN6P” value was less than 1e-05 s⁻¹.
With G9U G29C G41A the “self-cleavage kobs at 640 uM GlcN6P” value was less than 1e-05 s⁻¹.
With C10A G41C A48U the “self-cleavage kobs at 640 uM GlcN6P” value was less than 1e-05 s⁻¹.
For G7C C10A G13A G37A U45A, the “self-cleavage kobs at 640 uM GlcN6P” value was less than 1e-05 s⁻¹.
With G9U G35A G44U A53C C71G the “self-cleavage kobs at 640 uM GlcN6P” value was less than 1e-05 s⁻¹.
C10G A12U U56G C71U was tested, and the “self-cleavage kobs at 640 uM GlcN6P” value was less than 1e-05 s⁻¹.
C10G A15C was tested, and the “self-cleavage kobs at 640 uM GlcN6P” value was less than 1e-05 s⁻¹.
In the case of A6U U45A C50G U65G U69G, the “self-cleavage kobs at 640 uM GlcN6P” value is reported as less than 1e-05 s⁻¹.
G7A A52G U57A was tested, and the “self-cleavage kobs at 640 uM GlcN6P” value was less than 1e-05 s⁻¹.
In the case of G9A G62U G66U, the “self-cleavage kobs at 640 uM GlcN6P” value is reported as less than 1e-05 s⁻¹.
C10G C11A C16A C58G C71G was tested, and the “self-cleavage kobs at 640 uM GlcN6P” value was 0.00176 ± 0.00062 s⁻¹.
For C10A A15G G32U C70G, the “self-cleavage kobs at 640 uM GlcN6P” value was 0.000197 ± 7.6e-05 s⁻¹.
For C8U C16G A52U U65G G66A, the “self-cleavage kobs at 640 uM GlcN6P” value was less than 1e-05 s⁻¹.
For G9A A15U C16A G63C C68U, the “self-cleavage kobs at 640 uM GlcN6P” value was less than 1e-05 s⁻¹.
In the case of G9C G29C A52U C70U, the “self-cleavage kobs at 640 uM GlcN6P” value is reported as less than 1e-05 s⁻¹.
With C10U A39C G41A U46A the “self-cleavage kobs at 640 uM GlcN6P” value was less than 1e-05 s⁻¹.
In the case of C8U A12C U49A, the “self-cleavage kobs at 640 uM GlcN6P” value is reported as less than 1e-05 s⁻¹.
G7A C11G G40U was tested, and the “self-cleavage kobs at 640 uM GlcN6P” value was less than 1e-05 s⁻¹.
In the case of G7U C8A G13A, the “self-cleavage kobs at 640 uM GlcN6P” value is reported as less than 1e-05 s⁻¹.
G9U U47A was tested, and the “self-cleavage kobs at 640 uM GlcN6P” value was less than 1e-05 s⁻¹.
For G9C C10G A14G G41U A64C, the “self-cleavage kobs at 640 uM GlcN6P” value was less than 1e-05 s⁻¹.
For C8G C10G A12U A14G G43A C58U, the “self-cleavage kobs at 640 uM GlcN6P” value was less than 1e-05 s⁻¹.
With G9U A15C A42U the “self-cleavage kobs at 640 uM GlcN6P” value was less than 1e-05 s⁻¹.
C10A U47G was tested, and the “self-cleavage kobs at 640 uM GlcN6P” value was less than 1e-05 s⁻¹.
For C8U C34G A39G G44U, the “self-cleavage kobs at 640 uM GlcN6P” value was less than 1e-05 s⁻¹.
With G9A G29A G63U the “self-cleavage kobs at 640 uM GlcN6P” value was less than 1e-05 s⁻¹.
With G9A U47G U49G the “self-cleavage kobs at 640 uM GlcN6P” value was less than 1e-05 s⁻¹.
For G7C A39C G40C G44U, the “self-cleavage kobs at 640 uM GlcN6P” value was less than 1e-05 s⁻¹.
In the case of C10A C16U G35A, the “self-cleavage kobs at 640 uM GlcN6P” value is reported as less than 1e-05 s⁻¹.
With G9A G32C C61U the “self-cleavage kobs at 640 uM GlcN6P” value was less than 1e-05 s⁻¹.
With A6U G35C C68G C70U the “self-cleavage kobs at 640 uM GlcN6P” value was 0.000713 ± 0.00023 s⁻¹.
C8U G9U A15C G44U was tested, and the “self-cleavage kobs at 640 uM GlcN6P” value was less than 1e-05 s⁻¹.

Variants of: B1
Assay: self-cleavage kobs at 10000 uM GlcN6P; higher = faster cleavage; RNA array
Details: with glucosamine-6-phosphate
Procedure, shortened: as §1
With G9A A14G G38U the “self-cleavage kobs at 10000 uM GlcN6P” value was less than 1e-05 s⁻¹.
G7U G35U G38C was tested, and the “self-cleavage kobs at 10000 uM GlcN6P” value was less than 1e-05 s⁻¹.
G9U G29C G41A was tested, and the “self-cleavage kobs at 10000 uM GlcN6P” value was less than 1e-05 s⁻¹.
With C10G A15C the “self-cleavage kobs at 10000 uM GlcN6P” value was less than 1e-05 s⁻¹.
In the case of G9C G29C A52U C70U, the “self-cleavage kobs at 10000 uM GlcN6P” value is reported as less than 1e-05 s⁻¹.
In the case of G9A G32C C61U, the “self-cleavage kobs at 10000 uM GlcN6P” value is reported as less than 1e-05 s⁻¹.

Variants of: B1
Assay: self-cleavage kobs at 2500 uM GlcN6P; higher = faster cleavage; RNA array
Details: with glucosamine-6-phosphate
Procedure, shortened: as §1
With C8U G40C C71U the “self-cleavage kobs at 2500 uM GlcN6P” value was less than 1e-05 s⁻¹.
G7A G38C C58A was tested, and the “self-cleavage kobs at 2500 uM GlcN6P” value was less than 1e-05 s⁻¹.
For G9U A14C A64U C68A, the “self-cleavage kobs at 2500 uM GlcN6P” value was less than 1e-05 s⁻¹.
In the case of C8U G9U C68A, the “self-cleavage kobs at 2500 uM GlcN6P” value is reported as less than 1e-05 s⁻¹.
With C8U U31G G35U G44A C70U the “self-cleavage kobs at 2500 uM GlcN6P” value was less than 1e-05 s⁻¹.
With G7U G9C G29C A39G U46A A52U U55C C67G C70U the “self-cleavage kobs at 2500 uM GlcN6P” value was less than 1e-05 s⁻¹.
G7U G35U G38C was tested, and the “self-cleavage kobs at 2500 uM GlcN6P” value was less than 1e-05 s⁻¹.
For C10A A53G C70G, the “self-cleavage kobs at 2500 uM GlcN6P” value was 0.000151 ± 4.6e-05 s⁻¹.
In the case of G9C G43U U55G A64G, the “self-cleavage kobs at 2500 uM GlcN6P” value is reported as less than 1e-05 s⁻¹.
With C8A U57G the “self-cleavage kobs at 2500 uM GlcN6P” value was less than 1e-05 s⁻¹.
For C10U G35C G60A, the “self-cleavage kobs at 2500 uM GlcN6P” value was less than 1e-05 s⁻¹.
With G9C G29A G41A the “self-cleavage kobs at 2500 uM GlcN6P” value was less than 1e-05 s⁻¹.
A6U U31A G35U A42U G62U was tested, and the “self-cleavage kobs at 2500 uM GlcN6P” value was less than 1e-05 s⁻¹.
In the case of G9U G29C G41A, the “self-cleavage kobs at 2500 uM GlcN6P” value is reported as less than 1e-05 s⁻¹.
C10A G41C A48U was tested, and the “self-cleavage kobs at 2500 uM GlcN6P” value was less than 1e-05 s⁻¹.
With G7C C10A G13A G37A U45A the “self-cleavage kobs at 2500 uM GlcN6P” value was less than 1e-05 s⁻¹.
G9U G35A G44U A53C C71G was tested, and the “self-cleavage kobs at 2500 uM GlcN6P” value was less than 1e-05 s⁻¹.
With G7A A52G U57A the “self-cleavage kobs at 2500 uM GlcN6P” value was less than 1e-05 s⁻¹.
With G9A G62U G66U the “self-cleavage kobs at 2500 uM GlcN6P” value was less than 1e-05 s⁻¹.
C10G C11A C16A C58G C71G was tested, and the “self-cleavage kobs at 2500 uM GlcN6P” value was 0.000241 ± 0.0001 s⁻¹.
For C8U C16G A52U U65G G66A, the “self-cleavage kobs at 2500 uM GlcN6P” value was less than 1e-05 s⁻¹.
For G9C G29C A52U C70U, the “self-cleavage kobs at 2500 uM GlcN6P” value was less than 1e-05 s⁻¹.
C10U A39C G41A U46A was tested, and the “self-cleavage kobs at 2500 uM GlcN6P” value was less than 1e-05 s⁻¹.
G9U U47A was tested, and the “self-cleavage kobs at 2500 uM GlcN6P” value was less than 1e-05 s⁻¹.
G9C C10G A14G G41U A64C was tested, and the “self-cleavage kobs at 2500 uM GlcN6P” value was less than 1e-05 s⁻¹.
With C10A U47G the “self-cleavage kobs at 2500 uM GlcN6P” value was less than 1e-05 s⁻¹.
In the case of G9A G29A G63U, the “self-cleavage kobs at 2500 uM GlcN6P” value is reported as less than 1e-05 s⁻¹.
C10A C16U G35A was tested, and the “self-cleavage kobs at 2500 uM GlcN6P” value was less than 1e-05 s⁻¹.
In the case of C8U G9U A15C G44U, the “self-cleavage kobs at 2500 uM GlcN6P” value is reported as less than 1e-05 s⁻¹.
